Protein stability index data for 72 sequences are collected here from the supplement of paper PMC10567573.

± gives the standard deviation.

The data set can be described thus: protein stability index of a GFP-peptide fusion (GPS, HEK-293T) (PSI 1-6); higher = more stable.
Setting [1] is: treatment: DMSO, c terminus: a fixed tail appended.
Setting [2] is: treatment: MLN4924 1 uM, 8 h, c terminus: a fixed tail appended.
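Also: 24-mer peptide tiles fused after GFP, lentivirally expressed, FACS-sorted into six equal bins by GFP/DsRed ratio, decoded by Illumina sequencing, PSI is the read-weighted mean bin number.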

In the case of KCRMEESNAERGTAEPFPRLHNLY [CBY2], the protein stability index reads like this: under setting [1], 2.85 ± 0.27; under setting [2], 2.78 ± 0.15.
Take MYSSSCETTRNTTGIEESTDGMIL [LARP4]: the protein stability index under setting [1] was determined as 4.33 ± 0.24 and the protein stability index under setting [2] was determined as 4.48 ± 0.23.
For REPALDGGFQMHYEKTPFDQLAFI [EID1], the protein stability index reads like this: under setting [1], 2.65 ± 0.33; under setting [2], 2.43 ± 0.28.
For LTVRKSQSEPSEQDGVLDLSTKKS [LCOR], in that order: 5.15 ± 0.25 and 5.22 ± 0.24.
For NGGMATTSAEIELPDVEPAAFLAL [BTBD1], the protein stability index is, setting by setting: under setting [1], 3.86 ± 0.25; under setting [2], 4.02 ± 0.22.
For LAKTGEGSYGVVFKCRNKTSGQVV [CDKL4] the same measures were 2.72 ± 0.31 and 2.75 ± 0.2.
For FALASLLQSAPDVKGRVRCLTAGP [ZSWIM9], in that order: 2.02 ± 0.29 and 2.42 ± 0.24.
Take SVPIVYEKYKTQIDHYVGIARDQT [RTN3]: the protein stability index came out at 2.89 ± 0.36 under setting [1] and 3.06 ± 0.09 under setting [2].
On to ARSRALRRRWCPAGIMLLALVCLL [SPACA3], for which the protein stability index is, setting by setting: under setting [1], 2.23 ± 0.29; under setting [2], 2.23 ± 0.19.
For DENLFTGEDLDELEEELNTLDLEE [ZC3H15] the same measures were 5.18 ± 0.75 and 5.44 ± 0.21.
For VYSNTIQSIIAIIRAMGRLKIDFG [GNAI1] the same measures were 2.7 ± 0.53 and 2.13 ± 0.29.
For LVDQSKKANSPLKGHERTVQYLQH [VPS39], in that order: 4 ± 0.3 and 3.85 ± 0.32.
Consider SSALSQSGGGSTSAAGIEARSRAL [SPACA3], for which the protein stability index was found to be 4.76 ± 0.41 under setting [1] and 4.82 ± 0.064 under setting [2].
DREDSPERCSDSDEEKKARRGRSP [CLINT1] yielded a protein stability index under setting [1] of 5.59 ± 0.3 and a protein stability index under setting [2] of 5.34 ± 0.25.
In the case of HLDRTSVSSLSEVEEVDMAEEFEQ [ELOA2], the protein stability index by setting is: under setting [1], 5.66 ± 0.34; under setting [2], 5.48 ± 0.4.
For PLSDKGTTPLQLAIIRERSSCVKI [ASB7] the same measures were 2.64 ± 0.22 and 2.81 ± 0.4.
For SAVEGAPPARPRPRSPECRMIPGQ [IRX6] the same measures were 4.86 ± 0.24 and 4.96 ± 0.32.
For VRRQRSADEQLHCAGKAKRSGGHA [ESR2] the same measures were 4.51 ± 0.32 and 4.75 ± 0.13.
In the case of YSEEECKQYKAVVYSNTIQSIIAI [GNAI1], the protein stability index is 2.35 ± 0.63 under setting [1] and 2.06 ± 0.33 under setting [2].
In the case of SVGGVPGGTGSGDGNKIFLCHCGK [ZBTB22], the protein stability index under setting [1] was found to be 3.51 ± 0.19 and the protein stability index under setting [2] was 3.73 ± 0.47.
In the case of NNIMKCRSRYDGHRIWMYNCHIGG [LOXL2], the protein stability index is 2.5 ± 0.69 under setting [1] and 2.33 ± 0.42 under setting [2].
For FSEALAEGAVKMGMPSSLAHRIAA [PYCR3], in that order: 3.12 ± 0.42 and 3.06 ± 0.52.
As to LFAGPHSTLTPPCSPPEDGLCPH [SNX8], the protein stability index (treatment: DMSO, c terminus: native) is 3.79 ± 0.52 and the protein stability index (treatment: MLN4924 1 uM, 8 h, c terminus: native) was found to be 3.85 ± 0.22.
On to EGGEGEKEGEGEVGGEAVEVEEVE [TRIM55], for which the protein stability index was determined as 5.66 ± 0.35 under setting [1] and 5.41 ± 0.29 under setting [2].
Take QDVDPVHNLIEQVSLGLGQPWHAV [FBXO33]: the protein stability index reads like this: under setting [1], 2.75 ± 0.17; under setting [2], 2.55 ± 0.18.
Consider HNDRVQALSYAQHTRQLISCGGDG [WDFY2], for which the protein stability index under setting [1] was 2.77 ± 0.28 and the protein stability index under setting [2] was determined as 2.53 ± 0.17.
Turning to FYGHSHHSHHGHPSHQSHSLPNRR [C10orf62], the protein stability index was found to be 3.99 ± 0.29 under setting [1] and 4.21 ± 0.21 under setting [2].
For MDEESELIQPQDQSCWAFLPDLCL [FBXO39], in that order: 3.45 ± 0.17 and 3.34 ± 0.33.
For IVAGGYDERVLENVEHYQELKKMV [ALG2], in that order: 3.14 ± 0.25 and 3.2 ± 0.11.
In the case of SRTSCRLSGGLGAGSCRLGSAGGL [KRT17], the protein stability index reads like this: under setting [1], 2.33 ± 0.44; under setting [2], 2.23 ± 0.36.
The sequence ENMDLNKIDDLMQEITEQQDIAQE [CHMP4C] displayed a protein stability index under setting [1] of 5.6 ± 0.27 and a protein stability index under setting [2] of 5.4 ± 0.24.
For AERLRAELLDLKAGGFSIRNQKGE [MYORG] the same measures were 4.1 ± 0.26 and 4.24 ± 0.29.
For AVKKFVESEDDPVVKKIALREIRM [CDKL4] the same measures were 2.52 ± 0.25 and 2.98 ± 0.26.
For DNMYRLAHFSPFLYYQSQELPNGS [PDZK1] the same measures were 2.12 ± 0.22 and 2.33 ± 0.23.
Sequence QKLGSGAWDNPAYSGPPSPHGTLR [PKD2L1] yielded a protein stability index under setting [1] of 3.79 ± 0.1 and a protein stability index under setting [2] of 3.95 ± 0.31.
LSFLDYRDLINCCYVSRRLSQLSS [FBXO3] showed a protein stability index under setting [1] of 2.59 ± 0.18 and a protein stability index under setting [2] of 2.14 ± 0.48.
For PPATLGEGSADTEDRKLPAPGADV [EHMT1], in that order: 5.47 ± 0.3 and 5.58 ± 0.13.
For CEVPTCSLCKVFGAHKDCQVAPLT [TRIM55] the same measures were 3.58 ± 0.2 and 3.7 ± 0.25.
For RAQLHVQGLLHEAGSTDDRIVVPQ [SPNS1], in that order: 4.15 ± 0.1 and 4.23 ± 0.22.
For the sequence VFPAPVVGSGGATSGKLLLEADEL [ZBTB22], the protein stability index reads like this: under setting [1], 4.93 ± 0.25; under setting [2], 4.73 ± 0.22.
In the case of EDTTEEAQRRRMDEISDHAKVLTL [EIF5], the protein stability index under setting [1] came out at 5.24 ± 0.11 and the protein stability index under setting [2] was 5.18 ± 0.2.
Turning to LAHLGRHMEALEIAANLENKATNT [C8orf76], the protein stability index is 4.22 ± 0.17 under setting [1] and 4.29 ± 0.37 under setting [2].
As for SSRLPQPSGAGKTVVGVPSGKVSS [ZC2HC1A], the protein stability index worked out at 4.62 ± 0.13 under setting [1] and 4.81 ± 0.12 under setting [2].
IPKVELQISIYGVKILEPKTKEVQ [GULP1]: the protein stability index is, setting by setting: under setting [1], 2.46 ± 0.51; under setting [2], 1.98 ± 0.23.
For SGGYWVGMSTIRPNPGFSMLDFLS [APMAP], the protein stability index runs as follows: under setting [1], 2.1 ± 0.14; under setting [2], 2.32 ± 0.97.
As to TSRDRKDHMVRMHLYPADFRFDKP [ZNF511], the protein stability index is, setting by setting: under setting [1], 2.87 ± 0.31; under setting [2], 3.22 ± 0.14.
CRRSIRSALGRQRLQDISSLPLPQ [SPSB4]: the protein stability index turned out to be 3.03 ± 0.38 under setting [1] and 3.33 ± 0.43 under setting [2].
For FPFQAMVQFHRHHGQEGSILVTKV [GMPPB] the same measures were 2.22 ± 0.37 and 2.07 ± 0.15.
Regarding DRTSHRLHTANLGDSGFLVVRGGE [PPTC7], the protein stability index runs as follows: under setting [1], 4.08 ± 0.21; under setting [2], 4.11 ± 0.27.
As to EGHQEGLVELPASFRELLTFFCTN [SCNN1D], the protein stability index by setting is: under setting [1], 2.73 ± 0.36; under setting [2], 2.71 ± 0.34.
Consider NSLDTTSWAWRGPGVLKVLWLTAS [LPCAT4], for which the protein stability index reads like this: under setting [1], 2.43 ± 0.62; under setting [2], 2.25 ± 0.47.
For TSRRARASKKTAQPWVEVVLALRN [MFSD9] the same measures were 2.33 ± 0.12 and 2.58 ± 0.19.
For SPVTATLSDEDDGFVDLLDGENLK [CDC25A], in that order: 5.4 ± 0.21 and 5.52 ± 0.13.
For EEAVILLEDLERELDEPQHEMVAH [ZSCAN9], the protein stability index was determined as 4.14 ± 0.6 under setting [1] and 4.2 ± 0.34 under setting [2].
In the case of QRLLGEDKFQWLAGLAPPSLFARA [ANKRD9], the protein stability index is, setting by setting: under setting [1], 2.59 ± 0.12; under setting [2], 2.66 ± 0.28.
For QKTLQVKCQHYKKKRTEQEETIAS [CEP70], in that order: 4.33 ± 0.34 and 4.64 ± 0.2.
For WCSVAYWEHRTRVGRLYAVYDQAV [SMAD6], in that order: 2.44 ± 0.43 and 2.18 ± 0.16.
For AYDFPSPEWDTVTPEAKDLINKML [CAMK2A], in that order: 3.24 ± 0.24 and 3.58 ± 0.34.
In the case of RDYPSSRDTRDYAPPPRDYTYRDY [RBMX], the protein stability index came to 2.87 ± 0.38 under setting [1] and 3.08 ± 0.35 under setting [2].
In the case of PLTEQEESSPSHDRSRTVSASSTG [SRPK2], the protein stability index was found to be 5.25 ± 0.28 under setting [1] and 5.51 ± 0.23 under setting [2].
For FKMPWKPTHPSSTHALAEWASRRE [CDC25B] the same measures were 3.54 ± 0.12 and 3.63 ± 0.36.
For AEVWVSGTIFIRNVLLFKKQNPGK [RETREG3], in that order: 2.68 ± 0.54 and 2.49 ± 0.35.
TFSMPSDSHVSSCSEDWVGYQRKC [CD69]: the protein stability index under setting [1] turned out to be 3.64 ± 0.23 and the protein stability index under setting [2] came out at 3.51 ± 0.23.
For HTRSPYSTFYPPYHSPELTTPPGH [NEUROD6], in that order: 3.23 ± 0.14 and 3.18 ± 0.15.
For ERAKMSSSEVGPFVSKIRAVINDI [AUH] the same measures were 2.76 ± 0.14 and 2.86 ± 0.31.
For SNRGAYVKLGPALTPHIVQYQANK [PPEF2], in that order: 2.9 ± 0.38 and 2.99 ± 0.41.
Consider VVEEILELHIHRLRYLSSIWNILD [PKD2L1], for which the protein stability index worked out at 3.29 ± 0.65 under setting [1] and 3.04 ± 0.3 under setting [2].
For CDWLRATGFPQYAQLYEDFLFPID [DLC1], in that order: 2.31 ± 0.45 and 2.26 ± 0.24.
For MVRSVAWAGFMVLLMIPWGSAAKL [CHIT1] the same measures were 3.13 ± 0.57 and 2.87 ± 0.2.
For KDQRNPPSLGRVLPDPREACGSSS [RBMY1A1], in that order: 4.78 ± 0.17 and 5.18 ± 0.095.
Turning to MSAQSVEEDSILIIPTPDEEEKIL [ZNF24], the protein stability index was 5.08 ± 0.19 under setting [1] and 5.23 ± 0.1 under setting [2].
In the case of PTPPGQYFYPRGGGSGGGAGGAGG [JUNB], the protein stability index worked out at 4.81 ± 0.15 under setting [1] and 4.5 ± 0.16 under setting [2].
